According to patent US20120077224A1 (SALK INSTITUTE FOR BIOLOGICAL STUDIES, published 2012):
Non-standard residues stand in square brackets, D forms with d. Phe(4-N3) = [N-]=[N+]=Nc1ccc(C[C@H](N)C(=O)O)cc1

Legend:
[1] = biological target: the molecule itself; assay: in-cell photocrosslinking of the GST homodimer, anti-FLAG Western blot
[2] = biological target: the molecule itself; assay: in-cell photocrosslinking of the GST homodimer (365 nm, 10 min), band intensity ratio on anti-His Western blot
Procedure: E. coli GST is homodimer (Nishida et al., J. Mol. Biol., 1998, 281:135-147). Three sites at the dimer interface, Asn87 in a loop and Tyr92 and Val125 in α-helices were chosen for incorporating Azi (FIG. 10A). GST genes with TAG mutation at these sites and a C-terminal His6 tag were cotransfected with the orthogonal tRNACUA^Tyr/EAziRS pair in HEK293 cells, and the cells were grown in the presence of 1 mM of Azi. Photocrosslinking was performed by exposing the cells under 365 nm UV light for 10 minutes. Cell lysates were separated on SDS-PAGE and probed with an antibody against the His6 tag.
After photocrosslinking, higher molecular weight bands around 46 kD emerged, accompanied by the intensity decrease of the monomer band (several faint bands between 23 kD and 46 kD were proteins in the cell lysate recognized by the penta-His antibody nonspecifically, which were also seen in samples without exposure to UV light). […] Crosslinked GST migrated at different positions in the gel depending on where Azi was incorporated.

B1: E. coli glutathione S-transferase (GST) with p-azidophenylalanine (Azi) incorporated at Val125 (125TAG), C-terminal FLAG tag (enzyme, UniProt P0A9D2 1-201, looked up)
chain: MKLFYKPGACSLASHITLRESGKDFTLVSVDLMKKRLENGDDYFAVNPKGQVPALLLDDGTLLTEGVAIMQYLADSVPDRQLLAPVNSISRYKTIEWLNYIATELHKGFTPLFRPDTPEEYKPT[Phe(4-N3)]RAQLEKKLQYVNEALKDEHWICGQRFTIADAYLFTVLRWAYAVKLNLEGLEHIAAFMQRMAERPEVQDALSAEGLK
modifications: not fully specified (C-terminus); also: homodimer
notes: not shown: C-terminal FLAG tag replacing the His6 tag
[1]
  binding result: binds

B2: E. coli glutathione S-transferase (GST) with p-azidophenylalanine (Azi) incorporated at Asn87 (87TAG), C-terminal FLAG tag (enzyme, UniProt P0A9D2 1-201, looked up)
chain: MKLFYKPGACSLASHITLRESGKDFTLVSVDLMKKRLENGDDYFAVNPKGQVPALLLDDGTLLTEGVAIMQYLADSVPDRQLLAPV[Phe(4-N3)]SISRYKTIEWLNYIATELHKGFTPLFRPDTPEEYKPTVRAQLEKKLQYVNEALKDEHWICGQRFTIADAYLFTVLRWAYAVKLNLEGLEHIAAFMQRMAERPEVQDALSAEGLK
modifications: not fully specified (C-terminus); also: homodimer
notes: as for B1
[1]
  binding result: binds

B3: E. coli glutathione S-transferase (GST) with p-azidophenylalanine (Azi) incorporated at Asn87 (87TAG), C-terminal His6 tag (enzyme)
chain: MKLFYKPGACSLASHITLRESGKDFTLVSVDLMKKRLENGDDYFAVNPKGQVPALLLDDGTLLTEGVAIMQYLADSVPDRQLLAPV[Phe(4-N3)]SISRYKTIEWLNYIATELHKGFTPLFRPDTPEEYKPTVRAQLEKKLQYVNEALKDEHWICGQRFTIADAYLFTVLRWAYAVKLNLEGLEHIAAFMQRMAERPEVQDALSAEGLKHHHHHH
notes: Expressed in HEK293/HEK293T cells with tRNACUA-Tyr/EAziRS and 1 mM Azi; crosslinked in live cells with 365 nm UV; X stands for the unnatural amino acid Azi; also called GST 87TAG; site 87
[2]
  crosslinking efficiency: 33%

B4: E. coli glutathione S-transferase (GST) with p-azidophenylalanine (Azi) incorporated at Tyr92 (92TAG), C-terminal His6 tag (enzyme)
chain: MKLFYKPGACSLASHITLRESGKDFTLVSVDLMKKRLENGDDYFAVNPKGQVPALLLDDGTLLTEGVAIMQYLADSVPDRQLLAPVNSISR[Phe(4-N3)]KTIEWLNYIATELHKGFTPLFRPDTPEEYKPTVRAQLEKKLQYVNEALKDEHWICGQRFTIADAYLFTVLRWAYAVKLNLEGLEHIAAFMQRMAERPEVQDALSAEGLKHHHHHH
notes: Expressed in HEK293/HEK293T cells with tRNACUA-Tyr/EAziRS and 1 mM Azi; crosslinked in live cells with 365 nm UV; X stands for the unnatural amino acid Azi; also called site 92; GST-His6
[2]
  crosslinking efficiency: 40%

B5: E. coli glutathione S-transferase (GST) with p-azidophenylalanine (Azi) incorporated at Val125 (125TAG), C-terminal His6 tag (enzyme)
chain: MKLFYKPGACSLASHITLRESGKDFTLVSVDLMKKRLENGDDYFAVNPKGQVPALLLDDGTLLTEGVAIMQYLADSVPDRQLLAPVNSISRYKTIEWLNYIATELHKGFTPLFRPDTPEEYKPT[Phe(4-N3)]RAQLEKKLQYVNEALKDEHWICGQRFTIADAYLFTVLRWAYAVKLNLEGLEHIAAFMQRMAERPEVQDALSAEGLKHHHHHH
notes: Expressed in HEK293/HEK293T cells with tRNACUA-Tyr/EAziRS and 1 mM Azi; crosslinked in live cells with 365 nm UV; X stands for the unnatural amino acid Azi
[2]
  crosslinking efficiency: 98%
